# Measurements reported in patent publication US20230416352A1 (JIANGSU HENGRUI PHARMACEUTICALS, published 2023).
# Residue numbers refer to the chain shown, from its start.
# T1: human CTGF (antigen of the Biacore assays) (human, UniProt P29279 27-349, limits assumed)
# T1 construct: also called human CTGF protein
# T1 sequence: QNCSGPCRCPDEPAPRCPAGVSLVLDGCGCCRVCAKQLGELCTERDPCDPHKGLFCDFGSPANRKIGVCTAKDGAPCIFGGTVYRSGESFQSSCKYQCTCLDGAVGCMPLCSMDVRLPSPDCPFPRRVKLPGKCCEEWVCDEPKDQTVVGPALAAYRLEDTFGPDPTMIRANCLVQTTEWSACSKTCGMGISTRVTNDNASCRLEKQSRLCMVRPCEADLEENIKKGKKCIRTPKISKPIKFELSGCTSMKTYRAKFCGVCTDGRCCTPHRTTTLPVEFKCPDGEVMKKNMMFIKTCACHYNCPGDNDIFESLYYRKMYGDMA
# B1: CTGF antibody mAb1 (antibody, V domains shown)
# VH: EGQLVQSGGGLVHPGGSLRLSCAGSGFTFSSYGMHWVRQAPGKGLEWVSGIGTGGGTYSTDSVKGRFTISRDNAKNSLYLQMNSLRAEDMAVYYCARGDYYGSGSFFDCWGQGTLVTVSS
# VL: DIQMTQSPSSLSASVGDRVTITCRASQGISSWLAWYQQKPEKAPKSLIYAASSLQSGVPSRFSGSGSGTDFTLTISSLQPEDFATYYCQQYNSYPPTFGQGTKLEIKR
# notes: positive control, from CN1829740B; also called pamrevlumab; FG-3019
# B2: Hu164-67wl (antibody, human IgG1, lambda)
# heavy: not shown
# light: ETVVTQEPSLTVSPGGTVTLTCRSSIGAVTTSNYANWVQQKPGQAFRGLIGGTSNRAPWTPARFSGSLLGGKAALTLSGVQPEDEAEYYCALWYSTHYVFGGGTKLTVLGQPKANPTVTLFPPSSEELQANKATLVCLISDFYPGAVTVAWKADGSPVKAGVETTKPSKQSNNKYAASSYLSLTPEQWKSHRSYSCQVTHEGSTVEKTVAPTEC
# notes: humanized from mab164, Hu164-VH6/VL7; IgG1/lambda
# B3: Hu164-67yl (antibody, human IgG1, lambda)
# heavy: EVTLKESGPVLVKPTETLTLTCTVSGFSLSTFGVHWIRQPPGKGLEWLGVIWRRGGTDYNAAFMSRLTISKDTSKSQVVFTMTNMDPVDTATYYCARDGGFDYWGQGTTVTVSSASTKGPSVFPLAPSSKSTSGGTAALGCLVKDYFPEPVTVSWNSGALTSGVHTFPAVLQSSGLYSLSSVVTVPSSSLGTQTYICNVNHKPSNTKVDKKVEPKSCDKTHTCPPCPAPELLGGPSVFLFPPKPKDTLYITREPEVTCVVVDVSHEDPEVKFNWYVDGVEVHNAKTKPREEQYNSTYRVVSVLTVLHQDWLNGKEYKCKVSNKALPAPIEKTISKAKGQPREPQVYTLPPSRDELTKNQVSLTCLVKGFYPSDIAVEWESNGQPENNYKTTPPVLDSDGSFFLYSKLTVDKSRWQQGNVFSCSVMHEALHNHYTQKSLSLSPGK
# light: B2 light
# notes: humanized from mab164, Hu164-VH6/VL7
# B4: Hu147-22wk (antibody, human IgG1, kappa, V domains shown)
# VH: EVQLVESGGGLVQPGGSLRLSCAASGFTFNTYAMNWVRQAPGKGLEWVARIRTKSNNYATYYADSVKDRFTISRDDSKNSLYLQMNSLKTEDTAVYYCVETGFAYWDQGTLVTVSS
# VL: EIVLTQSPATLSLSPGERATLSCSASSSVSYMHWFQQKPGQSPKLLIYSTSNLASGIPARFSGSGSGTDYTLTISSLEPEDFAVYYCQQRSSYPLTFGQGTKLEIKR
# notes: humanized from mab147, Hu147-VH2/VL2; IgG1/kappa
# B5: Hu147-12wk (antibody, human IgG1, kappa, V domains shown)
# VH: B4 VH with N30S, A49G
# VL: B4 VL
# notes: humanized from mab147, Hu147-VH1/VL2; IgG1/kappa
# B6: Hu147-24wk (antibody, human IgG1, kappa, V domains shown)
# VH: B4 VH
# VL: DIQMTQSPSSLSASVGDRVTITCSASSSVSYMHWFQQKPGKSPKLLIYSTSNLASGVPSRFSGSGSGTDYTLTISSLQPEDFATYYCQQRSSYPLTFGQGTKLEIKR
# notes: humanized from mab147, Hu147-VH2/VL4; IgG1/kappa
# B7: Hu147-13wk (antibody, human IgG1, kappa, V domains shown)
# VH: B4 VH with N30S, A49G
# VL: B4 VL with L46W, I57V
# notes: humanized from mab147, Hu147-VH1/VL3; IgG1/kappa
# B8: Hu147-23wk (antibody, human IgG1, kappa, V domains shown)
# VH: B4 VH
# VL: B4 VL with L46W, I57V
# notes: humanized from mab147, Hu147-VH2/VL3; IgG1/kappa
# B9: Hu147-11wk (antibody, human IgG1, kappa, V domains shown)
# VH: B4 VH with N30S, A49G
# VL: B4 VL with K44R
# notes: humanized from mab147, Hu147-VH1/VL1
# B10: Hu147-34wk (antibody, human IgG1, kappa, V domains shown)
# VH: B4 VH with T28S, K78E, N79S
# VL: B6 VL
# notes: humanized from mab147, Hu147-VH3/VL4; IgG1/kappa
# B11: Hu147-21wk (antibody, human IgG1, kappa, V domains shown)
# VH: B4 VH
# VL: B4 VL with K44R
# notes: humanized from mab147, Hu147-VH2/VL1; IgG1/kappa
# B12: Hu147-33wk (antibody, human IgG1, kappa, V domains shown)
# VH: B4 VH with T28S, K78E, N79S
# VL: B4 VL with L46W, I57V
# notes: humanized from mab147, Hu147-VH3/VL3; IgG1/kappa
# B13: Hu147-14wk (antibody, human IgG1, kappa, V domains shown)
# VH: B4 VH with N30S, A49G
# VL: B6 VL
# notes: humanized from mab147, Hu147-VH1/VL4; IgG1/kappa
# B14: Hu147-32wk (antibody, human IgG1, kappa, V domains shown)
# VH: B4 VH with T28S, K78E, N79S
# VL: B4 VL
# notes: humanized from mab147, Hu147-VH3/VL2; IgG1/kappa
# B15: Hu147-31wk (antibody, human IgG1, kappa, V domains shown)
# VH: B4 VH with T28S, K78E, N79S
# VL: B4 VL with K44R
# notes: humanized from mab147, Hu147-VH3/VL1; IgG1/kappa
# B16: Hu147-15wk (antibody, human IgG1, kappa, V domains shown)
# VH: B4 VH with N30S, A49G
# VL: B6 VL with M4L, L46W
# notes: humanized from mab147, Hu147-VH1/VL5; IgG1/kappa
# Target: T1, human CTGF (antigen of the Biacore …)
# Experiment: SPR (Biacore T200), human CTGF on CM5 chip, antibody 150 ug/ml then 50 nM TGF-β1 as competitor
# Procedure: The antigen human CTGF was firstly fixed onto a CM5 biosensor chip (Cat. #BR-1005-30, GE) by amino coupling at a level of 1500 RU. Then high-concentration CTGF antibody (150 μg/ml) was allowed to flow over the surface of the chip for 150 s, and 50 nM TGF-β1 protein was injected for 120 s. The reaction signals were detected in real time using a Biacore T200 instrument to obtain an association and dissociation curve. After dissociation was complete in each test cycle, the biosensor chip was washed thoroughly and regenerated with a regeneration buffer.
# The data obtained from the experiment were statistically analyzed using GE Biacore T200 Evaluation version 3.0 software.
# Blocking efficiency=[1−(sample response value/blank control response value)]×100%.
row,Percent function blocking (%),Binder
1,41.3,B1
2,55.5,B2
3,53.9,B3
4,52.3,B4
5,51.6,B5
6,52.8,B6
7,53.3,B7
8,54.6,B8
9,50.8,B9
10,56.2,B10
11,51.6,B11
12,57.3,B12
13,50.9,B13
14,55.2,B14
15,55,B15
16,52.3,B16
